According to patent publication US8124835B2, “Acyl-coa-dependent diacylglycerol acyltransferas 1 (DGAT1) gene from Tropaeolum majus, protein encoded thereby and uses thereof” (National Research Council of Canada, priority 2006, dated 2012):
“Also recorded” adds a separate entry of the source.

Tested on: DGAT activity
Experiment: DGAT activity of site-directed mutagenized (SDM) TmDGAT1s expressed in yeast quadruple mutant H1246 MATα
Type: biochemical, Tropaeolum majus
From the text: FIG. 13. Expression of site-directed mutagenized (SDM) TmDGAT1 cDNAs in yeast quadruple mutant H1246 MATα. (A) The nasturtium DGAT1 cDNAs in pYES2/NT plasmid were transformed into a yeast DGAT mutant strain: H1246 MATα. The specific SDM changes were: F2R=Phe^439 to Arg (SEQ. ID. NO: 4, refer to SEQ. ID. NO: 10 for the nucleotide sequence); P2R=Pro^216 to Arg (SEQ. ID. NO: 5, refer to SEQ. ID. NO: 11 for the nucleotide sequence); Y2G_W2G=Tyr^392 to Gly+Trp^395 to Gly (SEQ. ID. NO: 9, refer to SEQ. ID. NO: 15 for the nucleotide sequence); Y2A=Tyr^392 to Ala (SEQ. ID. NO: 8, refer to SEQ. ID. NO: 14 for the nucleotide sequence); S2A=Ser^197 to Ala (SEQ. ID. NO: 6, refer to SEQ. ID. NO: 12 for the nucleotide sequence) and E2V=E^145 to Val (SEQ. ID. NO: 7, refer to SEQ. ID. NO: 13 for the nucleotide sequence). Yeast cells transformed with pYES2/NT plasmid only was used as a control. The mutant, transformed with the native TmDGAT1, was used as a positive DGAT control. Following the induction in the presence of galactose, the transformants were lysed and assayed for DGAT activity. (B) Western blot of the SDM TmDGATs using an Anti-Xpress antibody. Following a 7 h lyse, a 15,000×g protein pellet isolated and proteins separated by SDS-PAGE.
FIG. 14. SDM TmDGATs (SnRK1 and Tyr-P sites) activity utilizing ^14C labeled erucoyl-CoA or oleoyl-CoA+sn-1,2-diolein or dierucin. SDM TmDGATs were transformed into yeast DGAT mutant, H1246 MATα, following induction by galactose the yeast were assayed for DGAT activity. Activity is expressed as a percent of native TmDGAT, with native TmDGAT activity set at 100%.
The TmDGAT1 ORF (SEQ. ID. NO: 2) in pYES2.1/V5-His-TOPO plasmid was transformed into a quadruple yeast mutant H1246MATα (Sandager et al, 2002) using the S.c. EasyComp™ transformation Kit (Invitrogen). Yeast cells transformed with pYES2.1/V5-His-TOPO plasmid only were used as a control. Transformants were selected by growth on synthetic complete medium lacking uracil (SC-ura), supplemented with 2% (w/v) glucose. The colonies were transferred into liquid SC-ura with 2% (w/v) glucose and grown at 28° C. overnight. The overnight cultures were diluted to an OD of 0.4 in induction medium (SC-ura+2% Galactose+1% Raffinose), and were induced for 24-36 hours at 28° C. Cells were collected and broken using glass beads. The crude protein concentration in the lysates was normalized using the Biorad assay based on the method of (Bradford, 1976) and assayed for DGAT activity. DGAT assays were conducted at pH 7.4, with shaking at 100 rev/min in a water bath at 30° C. for 60 min. Assay mixtures (0.5 ml final volume) contained 500 μg lysate protein normalized as described above, 90 mM HEPES-NaOH, 200 μM sn-1,2 diolein or sn-1,2 dierucin (pre-purified by TLC on 10% borate silica H plates) in 0.02% Tween-20, and 18 μM 1-^14C acyl-CoA (specific activity 2 nCi/nmol) as the acyl donor. The ^14C-labelled TAGs were isolated and counted as described above for insect cell expression.
To introduce point mutations into the Tropaeolum majus DGAT1 coding region, we used a QuikChange™ site-directed mutagenesis kit (Stratagene). Primers were complementary to opposite strands of pYES2.1/V5-His TOPO yeast expression vector (Invitrogen) containing the TmDGAT1 gene. During the PCR, primers were extended with PfuTurbo DNA polymerase. This polymerase replicated both strands with high fidelity and without displacing the mutated oligonucleotide primers. The cycling parameters used for site-directed mutagenesis were as follows: initial denaturation at 95° C. for 30 s, followed by 15 cycles at 95° C. for 30 s, 55° C. for 1 min, and 68° C. for 15 min, with termination at 68° C. for 15 min. Following the PCR reaction, the product was treated with DpnI endonuclease (target sequence: 5′-Gm6ATC-3′) which is specific for methylated and hemimethylated DNA, used to digest the parental DNA template and to select for the mutated DNA.

[1] = recombinant SDM protein from yeast H1246MATα

B1: P216R (protein)
chain: MAVAESSQNTTTMSGHGDSDLNNFRRRKPSSSVIEPSSSGFTSTNGVPATGHVAENRDQDRVGAMENATGSVNLIGNGGGVVIGNEEKQVGETDIRFTYRPSFPAHRRVRESPLSSDAIFKQSHAGLFNLCIVVLIAVNSRLIIENLMKYGWLIDTGFWFSSRSLGDWSIFMCCLTLPIFPLAAFIVEKLVQRNHISELVAVLLHVIVSTAAVLYRVIVILTCDSVYMSGVVLMLFGCIMWLKLVSYAHTSSDIRTLAKSGYKGDAHPNSTIVSCSYDVSLKSLAYFMVAPTLCYQPSYPRSSCIRKGWVVRQFVKLIVFIGLMGFIIEQYINPIVRNSKHPLKGDFLYAIERVLKLSVPNLYVWLCMFYSFFHLWLNILAELLRFGDREFYKDWWNAKTVAEYWKMWNMPVHRWMVRHLYFPCLRNGIPKEGAIIIAFLVSGAFHELCIAVPCHVFKLWAFIGIMFQVPLVLITNYLQEKFSNSMVGNMIFWFIFCILGQPMCVLLYYHDLINLKEK
Recombinant SDM protein from yeast H1246MATα, listed as Proline^216 (changed to an Arg)
  DGAT1 activity compared to recombinant WT TmDGAT1 (in words): total loss of DGAT activity; also recorded: abolished
Recombinant SDM protein from yeast H1246MATα, listed as Proline^216 with Arginine
  DGAT1 activity compared to recombinant WT TmDGAT1 (in words): total loss of DGAT1 activity

B2: E145V: SDM TmDGAT1, Glu145 to Val in the catalytic site (SEQ ID NO: 7) (protein, listed as Tropaeolum majus)
chain: MAVAESSQNTTTMSGHGDSDLNNFRRRKPSSSVIEPSSSGFTSTNGVPATGHVAENRDQDRVGAMENATGSVNLIGNGGGVVIGNEEKQVGETDIRFTYRPSFPAHRRVRESPLSSDAIFKQSHAGLFNLCIVVLIAVNSRLIIVNLMKYGWLIDTGFWFSSRSLGDWSIFMCCLTLPIFPLAAFIVEKLVQRNHISELVAVLLHVIVSTAAVLYPVIVILTCDSVYMSGVVLMLFGCIMWLKLVSYAHTSSDIRTLAKSGYKGDAHPNSTIVSCSYDVSLKSLAYFMVAPTLCYQPSYPRSSCIRKGWVVRQFVKLIVFIGLMGFIIEQYINPIVRNSKHPLKGDFLYAIERVLKLSVPNLYVWLCMFYSFFHLWLNILAELLRFGDREFYKDWWNAKTVAEYWKMWNMPVHRWMVRHLYFPCLRNGIPKEGAIIIAFLVSGAFHELCIAVPCHVFKLWAFIGIMFQVPLVLITNYLQEKFSNSMVGNMIFWFIFCILGQPMCVLLYYHDLINLKEK
[1]
  decrease in DGAT1 activity compared to wild type TmDGAT1: 43%

B3: S197A: SDM TmDGAT1, Ser197 to Ala in putative SnRK1 phosphorylation motif (SEQ ID NO: 6) (protein, listed as Tropaeolum majus)
chain: MAVAESSQNTTTMSGHGDSDLNNFRRRKPSSSVIEPSSSGFTSTNGVPATGHVAENRDQDRVGAMENATGSVNLIGNGGGVVIGNEEKQVGETDIRFTYRPSFPAHRRVRESPLSSDAIFKQSHAGLFNLCIVVLIAVNSRLIIENLMKYGWLIDTGFWFSSRSLGDWSIFMCCLTLPIFPLAAFIVEKLVQRNHIAELVAVLLHVIVSTAAVLYPVIVILTCDSVYMSGVVLMLFGCIMWLKLVSYAHTSSDIRTLAKSGYKGDAHPNSTIVSCSYDVSLKSLAYFMVAPTLCYQPSYPRSSCIRKGWVVRQFVKLIVFIGLMGFIIEQYINPIVRNSKHPLKGDFLYAIERVLKLSVPNLYVWLCMFYSFFHLWLNILAELLRFGDREFYKDWWNAKTVAEYWKMWNMPVHRWMVRHLYFPCLRNGIPKEGAIIIAFLVSGAFHELCIAVPCHVFKLWAFIGIMFQVPLVLITNYLQEKFSNSMVGNMIFWFIFCILGQPMCVLLYYHDLINLKEK
erucoyl-CoA:sn-1,2-dierucin pairing of substrates
  increase in trierucin production compared to the native DGAT1: ~40%
[1]
  increase in DGAT1 activity compared to wild type TmDGAT1: up to 125%

B4: Y392A (protein)
chain: MAVAESSQNTTTMSGHGDSDLNNFRRRKPSSSVIEPSSSGFTSTNGVPATGHVAENRDQDRVGAMENATGSVNLIGNGGGVVIGNEEKQVGETDIRFTYRPSFPAHRRVRESPLSSDAIFKQSHAGLFNLCIVVLIAVNSRLIIENLMKYGWLIDTGFWFSSRSLGDWSIFMCCLTLPIFPLAAFIVEKLVQRNHISELVAVLLHVIVSTAAVLYPVIVILTCDSVYMSGVVLMLFGCIMWLKLVSYAHTSSDIRTLAKSGYKGDAHPNSTIVSCSYDVSLKSLAYFMVAPTLCYQPSYPRSSCIRKGWVVRQFVKLIVFIGLMGFIIEQYINPIVRNSKHPLKGDFLYAIERVLKLSVPNLYVWLCMFYSFFHLWLNILAELLRFGDREFAKDWWNAKTVAEYWKMWNMPVHRWMVRHLYFPCLRNGIPKEGAIIIAFLVSGAFHELCIAVPCHVFKLWAFIGIMFQVPLVLITNYLQEKFSNSMVGNMIFWFIFCILGQPMCVLLYYHDLINLKEK
[1]
  decrease in DGAT1 activity compared to wild type TmDGAT1: 80%

B5: Y392G + W395G (protein)
chain: MAVAESSQNTTTMSGHGDSDLNNFRRRKPSSSVIEPSSSGFTSTNGVPATGHVAENRDQDRVGAMENATGSVNLIGNGGGVVIGNEEKQVGETDIRFTYRPSFPAHRRVRESPLSSDAIFKQSHAGLFNLCIVVLIAVNSRLIIENLMKYGWLIDTGFWFSSRSLGDWSIFMCCLTLPIFPLAAFIVEKLVQRNHISELVAVLLHVIVSTAAVLYPVIVILTCDSVYMSGVVLMLFGCIMWLKLVSYAHTSSDIRTLAKSGYKGDAHPNSTIVSCSYDVSLKSLAYFMVAPTLCYQPSYPRSSCIRKGWVVRQFVKLIVFIGLMGFIIEQYINPIVRNSKHPLKGDFLYAIERVLKLSVPNLYVWLCMFYSFFHLWLNILAELLRFGDREFGKDGWNAKTVAEYWKMWNMPVHRWMVRHLYFPCLRNGIPKEGAIIIAFLVSGAFHELCIAVPCHVFKLWAFIGIMFQVPLVLITNYLQEKFSNSMVGNMIFWFIFCILGQPMCVLLYYHDLINLKEK
[1]
  DGAT1 activity compared to recombinant WT TmDGAT1 (in words): total loss of activity
